For two molecules, Kd results are on record in publication PMC5670239 (2017).

Holding throughout (assay): ITC
The target in assay [1] is T1, NELF-E 244-380 (Homo sapiens, UniProt P18615).
T1 chain: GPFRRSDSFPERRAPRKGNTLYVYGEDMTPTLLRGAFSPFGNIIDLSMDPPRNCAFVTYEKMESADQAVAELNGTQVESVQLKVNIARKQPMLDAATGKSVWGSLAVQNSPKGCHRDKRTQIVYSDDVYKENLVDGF

Assay [2] concerns the target T2, ARS2 763-871 (Homo sapiens, UniProt Q9BXP5).
T2 chain: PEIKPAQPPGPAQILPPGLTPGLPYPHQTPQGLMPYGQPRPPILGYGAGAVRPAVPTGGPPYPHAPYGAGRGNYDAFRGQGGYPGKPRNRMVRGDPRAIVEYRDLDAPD

Assay [3] has as its target T3, NELF-E 360-380 (Homo sapiens, UniProt P18615, m7GTP).
T3 chain: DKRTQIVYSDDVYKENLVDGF

Assay [4] has as its target PHAX (Homo sapiens, UniProt Q9H814).
Assay [5] concerns the target T4, PHAX 103-308 (Homo sapiens, UniProt Q9H814).
T4 chain: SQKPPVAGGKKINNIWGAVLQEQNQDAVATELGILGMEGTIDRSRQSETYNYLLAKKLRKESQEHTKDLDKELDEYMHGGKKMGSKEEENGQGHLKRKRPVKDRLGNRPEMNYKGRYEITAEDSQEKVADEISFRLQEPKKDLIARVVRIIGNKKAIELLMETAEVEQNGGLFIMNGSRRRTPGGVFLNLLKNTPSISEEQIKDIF

The target of assay [6] is T5, ARS2 845-871 (Homo sapiens, UniProt Q9BXP5, m7GTP).
T5 chain: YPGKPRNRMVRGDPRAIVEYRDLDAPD

The target of assay [7] is T6, ARS2 827-871 (Homo sapiens, UniProt Q9BXP5, m7GTP).
T6 chain: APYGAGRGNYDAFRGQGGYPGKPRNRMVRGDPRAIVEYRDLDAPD

Chain of PHAX (Q9H814 2-394): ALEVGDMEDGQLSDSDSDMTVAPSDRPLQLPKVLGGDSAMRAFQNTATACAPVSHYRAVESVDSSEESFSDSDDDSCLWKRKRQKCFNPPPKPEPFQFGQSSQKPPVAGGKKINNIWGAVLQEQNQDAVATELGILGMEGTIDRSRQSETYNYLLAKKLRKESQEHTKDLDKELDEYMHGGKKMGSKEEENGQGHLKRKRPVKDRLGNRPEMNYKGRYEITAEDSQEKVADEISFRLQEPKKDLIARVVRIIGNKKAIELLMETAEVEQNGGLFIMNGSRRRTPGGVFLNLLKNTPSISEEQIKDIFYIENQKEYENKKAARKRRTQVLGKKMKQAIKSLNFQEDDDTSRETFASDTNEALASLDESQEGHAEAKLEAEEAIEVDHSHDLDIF

B1: CBC (protein)
chain 1: MSRRRHSDENDGGQPHKRRKTSDANETEDHLESLICKVGEKSACSLESNLEGLAGVLEADLPNYKSKILRLLCTVARLLPEKLTIYTTLVGLLNARNYNFGGEFVEAMIRQLKESLKANNYNEAVYLVRFLSDLVNCHVIAAPSMVAMFENFVSVTQEEDVPQVRRDWYVYAFLSSLPWVGKELYEKKDAEMDRIFANTESYLKRRQKTHVPMLQVWTADKPHPQEEYLDCLWAQIQKLKKDRWQERHILRPYLAFDSILCEALQHNLPPFTPPPHTEDSVYPMPRVIFRMFDYTDDPEGPVMPGSHSVERFVIEENLHCIIKSHWKERKTCAAQLVSYPGKNKIPLNYHIVEVIFAELFQLPAPPHIDVMYTTLLIELCKLQPGSLPQVLAQATEMLYMRLDTMNTTCVDRFINWFSHHLSNFQFRWSWEDWSDCLSQDPESPKPKFVREVLEKCMRLSYHQRILDIVPPTFSALCPANPTCIYKYGDESSNSLPGHSVALCLAVAFKSKATNDEIFSILKDVPNPNQDDDDDEGFSFNPLKIEVFVQTLLHLAAKSFSHSFSALAKFHEVFKTLAESDEGKLHVLRVMFEVWRNHPQMIAVLVDKMIRTQIVDCAAVANWIFSSELSRDFTRLFVWEILHSTIRKMNKHVLKIQKELEEAKEKLARQHKRRSDDDDRSSDRKDGVLEEQIERLQEKVESAQSEQKNLFLVIFQRFIMILTEHLVRCETDGTSVLTPWYKNCIERLQQIFLQHHQIIQQYMVTLENLLFTAELDPHILAVFQQFCALQA
chain 2: SGGLLKALRSDSYVELSQYRDQHFRGDNEEQEKLLKKSCTLYVGNLSFYTTEEQIYELFSKSGDIKKIIMGLDKMKKTACGFCFVEYYSRADAENAMRYINGTRLDDRIIRTDWDAGFKEGRQYGRGRSGGQVRDEYRQDYDAGRGGYGKLAQNQ
modifications: m7GTP
As for B1, the Kd is ~50 nM in assay [1] and 1000 nM in assay [2].

B2: CBC (protein)
chain 1: MSRRRHSDENDGGQPHKRRKTSDANETEDHLESLICKVGEKSACSLESNLEGLAGVLEADLPNYKSKILRLLCTVARLLPEKLTIYTTLVGLLNARNYNFGGEFVEAMIRQLKESLKANNYNEAVYLVRFLSDLVNCHVIAAPSMVAMFENFVSVTQEEDVPQVRRDWYVYAFLSSLPWVGKELYEKKDAEMDRIFANTESYLKRRQKTHVPMLQVWTADKPHPQEEYLDCLWAQIQKLKKDRWQERHILRPYLAFDSILCEALQHNLPPFTPPPHTEDSVYPMPRVIFRMFDYTDDPEGPVMPGSHSVERFVIEENLHCIIKSHWKERKTCAAQLVSYPGKNKIPLNYHIVEVIFAELFQLPAPPHIDVMYTTLLIELCKLQPGSLPQVLAQATEMLYMRLDTMNTTCVDRFINWFSHHLSNFQFRWSWEDWSDCLSQDPESPKPKFVREVLEKCMRLSYHQRILDIVPPTFSALCPANPTCIYKYGDESSNSLPGHSVALCLAVAFKSKATNDEIFSILKDVPNPNQDDDDDEGFSFNPLKIEVFVQTLLHLAAKSFSHSFSALAKFHEVFKTLAESDEGKLHVLRVMFEVWRNHPQMIAVLVDKMIRTQIVDCAAVANWIFSSELSRDFTRLFVWEILHSTIRKMNKHVLKIQKELEEAKEKLARQHKRRSDDDDRSSDRKDGVLEEQIERLQEKVESAQSEQKNLFLVIFQRFIMILTEHLVRCETDGTSVLTPWYKNCIERLQQIFLQHHQIIQQYMVTLENLLFTAELDPHILAVFQQFCALQA
chain 2: SGGLLKALRSDSYVELSQYRDQHFRGDNEEQEKLLKKSCTLYVGNLSFYTTEEQIYELFSKSGDIKKIIMGLDKMKKTACGFCFVEYYSRADAENAMRYINGTRLDDRIIRTDWDAGFKEGRQYGRGRSGGQVRDEYRQDYDAGRGGYGKLAQNQ
Take B2: the Kd in assay [3] is ~3300 nM; in assay [1], ~400 nM; in assay [4] it was 300 nM; in assay [5], 600 nM; in assay [6] it was 1100 nM; in assay [7], 1000 nM.

The Kd is a measure of binding affinity in units of concentration. The low end stands for a tighter complex, the high end for a looser complex.
